In US20220363778A1 (RESEARCH FOUNDATION FOR THE STATE UNIVERSITY OF NEW YORK, published 2022):

What was measured:
[1] = biological target: T1, mouse serum albumin (MSA) (MyBioSource, MBS135633) (mouse, UniProt P07724 25-608, limits assumed); experiment: SPR, mouse serum albumin injected at about 400 s over 2Rs15d-ColH held on a HER2-Fc chip
T1 construct: Immobilised on the SPR chip for kinetics
Source text: Surface plasmon resonance was used to assess HER2 and MSA binding.

[2] = biological target: T1, mouse serum albumin (MSA) (MyBioSource, …); experiment: SPR, mouse serum albumin immobilised on the chip, 2Rb17c-ColH-ABD injected at 7.5-75 nM, 10 min dissociation, 1:1 Langmuir fit in Scrubber
Experimental: (§1) Surface plasmon resonance (SPR) was performed using a Reichert SR7500DC SPR and SR8100 autosampler (Reichert, Depew, N.Y.). HER2-Fc (Sino Biological, Beijing, China, 10004-H02H) or mouse serum albumin (MSA) (MyBioSource, San Diego, Calif., MBS135633) was immobilized onto a carboxymethyl dextran SPR chip (Reichert, Depew, N.Y., 13206066) using 1-Ethyl-3-(3-dimethylaminopropyl)carbodiimide/N-hydroxysuccinimide linker chemistry. A mobile phase of PBS 0.05% Tween-20 at a flow rate of 25 μL/min was used for all binding evaluations. Fusion protein dilutions were injected for 90 seconds, and the chip regenerated following dissociation with a 2-minute injection of a 10 millimolar (mM) glycine buffer pH 1.5. […] The observed sensor-grams were fit to a 1:1 Langmuir binding model in the Scrubber analysis software to obtain the association rate constant (kon), dissociation rate constant (koff), and the equilibrium dissociation constant (KD).

[3] = biological target: T2, HER2-Fc (Sino Biological, 10004-H02H) (UniProt P04626 23-652); experiment: SPR, HER2-Fc immobilised, 1:1 Langmuir fit
T2 construct: Bought reagent, immobilised on a carboxymethyl dextran SPR chip by EDC/NHS; not shown: Fc portion of the bought reagent

[4] = biological target: T1, mouse serum albumin (MSA) (MyBioSource, …); experiment: SPR, mouse serum albumin immobilised on the chip, 2Rs15d-ColH-ABD injected at 7.5-60 nM, 10 min dissociation, 1:1 Langmuir fit in Scrubber
Experimental: as §1

B1: 2Rs15d-ColH fusion protein (2Rs15d-Clostridial Collagenase H fusion protein) (other)
chain: QVQLQESGGGSVQAGGSLKLTCAASGYIFNSCGMGWYRQSPGRERELVSRISGDGDTWHKESVKGRFTISQDNVKKTLYLQMNSLKPEDTAVYFCAVCYNLETYWGQGTQVTVSSGGGGSGGGGSGGGGSVQNESKRYTVSYLKTLNYYDLVDLLVKTEIENLPDLFQYSSDAKEFYGNKTRMSFIMDEIGRRAPQYTEIDHKGIPTLVEVVRAGFYLGFHNKELNEINKRSFKERVIPSILAIQKNPNFKLGTEVQDKIVSATGLLAGNETAPPEVVNNFTPILQDCIKNIDRYALDDLKSKALFNVLAAPTYDITEYLRATKEKPENTPWYGKIDGFINELKKLALYGKINDNNSWIIDNGIYHIAPLGKLHSNNKIGIETLTEVMKVYPYLSMQHLQSADQIKRHYDSKDAEGNKIPLDKFKKEGKEKYCPKTYTFDDGKVIIKAGARVEEEKVKRLYWASKEVNSQFFRVYGIDKPLEEGNPDDILTMVIYNSPEEYKLNSVLYGYDTNNGGMYIEPEGTFFTYEREAQESTYTLEELFRHEYTHYLQGRYAVPGQWGRTKLYDNDRLTWYEEGGAELFAGSTRTSGILPRKSIVSNIHNTTRNNRYKLSDTVHSKYGASFEFYNYACMFMDYMYNKDMGILNKLNDLAKNNDVDGYDNYIRDLSSNYALNDKYQDHMQERIDNYENLTVPFVADDYLVRHAYKNPNEIYSEISEVAKLKDAKSEVKKSQYFSTFTLRGSYTGGASKGKLEDQKAMNKFIDDSLKKLDTYSWSGYKTLTAYFTNYKVDSSNRVTYDVVFHGYLPNEGDSKNSLPYGKINGTYKGTEKEKIKFSSEGSFDPDGKIVSYEWDFGDGNKSNEENPEHSYDKVGTYTVKLKVTDDKGESSVSTTTAEIKDLSENKLPVIYMHVPKSGALNQKVVFYGKGTYDPDGSIAGYQWDFGDGSDFSSEQNPSHVYTKKGEYTVTLRVMDSSGQMSEKTMKIKITDPVYPIGTEKEPNNSKETASGPIVPGIPVSGTIENTSDQDYFYFDVITPGEVKIDINKLGYGGATWVVYDENNNAVSYATDDGQNLSGKFKADKPGRYYIHLYMFNGSYMPYRINIELEHHHHHH
notes: Fusion of a VHH (sdAb), a linker, Clostridium collagenase H and a His6 tag, expressed in E. coli SHuffle; also called targeted collagenase; anti-HER2-collagenase fusion protein
[1]
  binding result: no binding

B2: 2Rb17c-ColH-ABD fusion protein (other)
chain: QVQLQESGGGLVQPGGSLRLSCAASGFIFSNDAMTWVRQAPGKGLEWVSSINWSGTHTNYADSVKGRFTISRDNAKRTLYLQMNSLKDEDTALYYCVTGYGVTKTPTGQGTQVTVSSGGGSGGGSGGGSVQNESKRYTVSYLKTLNYYDLVDLLVKTEIENLPDLFQYSSDAKEFYGNKTRMSFIMDEIGRRAPQYTEIDHKGIPTLVEVVRAGFYLGFHNKELNEINKRSFKERVIPSILAIQKNPNFKLGTEVQDKIVSATGLLAGNETAPPEVVNNFTPILQDCIKNIDRYALDDLKSKALFNVLAAPTYDITEYLRATKEKPENTPWYGKIDGFINELKKLALYGKINDNNSWIIDNGIYHIAPLGKLHSNNKIGIETLTEVMKVYPYLSMQHLQSADQIKRHYDSKDAEGNKIPLDKFKKEGKEKYCPKTYTFDDGKVIIKAGARVEEEKVKRLYWASKEVNSQFFRVYGIDKPLEEGNPDDILTMVIYNSPEEYKLNSVLYGYDTNNGGMYIEPEGTFFTYEREAQESTYTLEELFRHEYTHYLQGRYAVPGQWGRTKLYDNDRLTWYEEGGAELFAGSTRTSGILPRKSIVSNIHNTTRNNRYKLSDTVHSKYGASFEFYNYACMFMDYMYNKDMGILNKLNDLAKNNDVDGYDNYIRDLSSNYALNDKYQDHMQERIDNYENLTVPFVADDYLVRHAYKNPNEIYSEISEVAKLKDAKSEVKKSQYFSTFTLRGSYTGGASKGKLEDQKAMNKFIDDSLKKLDTYSWSGYKTLTAYFTNYKVDSSNRVTYDVVFHGYLPNEGDSKNSLPYGKINGTYKGTEKEKIKFSSEGSFDPDGKIVSYEWDFGDGNKSNEENPEHSYDKVGTYTVKLKVTDDKGESSVSTTTAEIKDLSENKLPVIYMHVPKSGALNQKVVFYGKGTYDPDGSIAGYQWDFGDGSDFSSEQNPSHVYTKKGEYTVTLRVMDSSGQMSEKTMKIKITDPVYPIGTEKEPNNSKETASGPIVPGIPVSGTIENTSDQDYFYFDVITPGEVKIDINKLGYGGATWVVYDENNNAVSYATDDGQNLSGKFKADKPGRYYIHLYMFNGSYMPYRINIEGGGSGGGSLEVLFQGPGGGSLAEAKVLANRELDKYGVSDFYKRLINKAKTVEGVEALKLHILAALPHHHHHH
[2]
  Kd: 1.6 nM
[3]
  Kd: 17.1 nM

B3: 2Rs15d-ColH-ABD fusion protein (other)
chain: QVQLQESGGGSVQAGGSLKLTCAASGYIFNSCGMGWYRQSPGRERELVSRISGDGDTWHKESVKGRFTISQDNVKKTLYLQMNSLKPEDTAVYFCAVCYNLETYWGQGTQVTVSSGGGSGGGSGGGSVQNESKRYTVSYLKTLNYYDLVDLLVKTEIENLPDLFQYSSDAKEFYGNKTRMSFIMDEIGRRAPQYTEIDHKGIPTLVEVVRAGFYLGFHNKELNEINKRSFKERVIPSILAIQKNPNFKLGTEVQDKIVSATGLLAGNETAPPEVVNNFTPILQDCIKNIDRYALDDLKSKALFNVLAAPTYDITEYLRATKEKPENTPWYGKIDGFINELKKLALYGKINDNNSWIIDNGIYHIAPLGKLHSNNKIGIETLTEVMKVYPYLSMQHLQSADQIKRHYDSKDAEGNKIPLDKFKKEGKEKYCPKTYTFDDGKVIIKAGARVEEEKVKRLYWASKEVNSQFFRVYGIDKPLEEGNPDDILTMVIYNSPEEYKLNSVLYGYDTNNGGMYIEPEGTFFTYEREAQESTYTLEELFRHEYTHYLQGRYAVPGQWGRTKLYDNDRLTWYEEGGAELFAGSTRTSGILPRKSIVSNIHNTTRNNRYKLSDTVHSKYGASFEFYNYACMFMDYMYNKDMGILNKLNDLAKNNDVDGYDNYIRDLSSNYALNDKYQDHMQERIDNYENLTVPFVADDYLVRHAYKNPNEIYSEISEVAKLKDAKSEVKKSQYFSTFTLRGSYTGGASKGKLEDQKAMNKFIDDSLKKLDTYSWSGYKTLTAYFTNYKVDSSNRVTYDVVFHGYLPNEGDSKNSLPYGKINGTYKGTEKEKIKFSSEGSFDPDGKIVSYEWDFGDGNKSNEENPEHSYDKVGTYTVKLKVTDDKGESSVSTTTAEIKDLSENKLPVIYMHVPKSGALNQKVVFYGKGTYDPDGSIAGYQWDFGDGSDFSSEQNPSHVYTKKGEYTVTLRVMDSSGQMSEKTMKIKITDPVYPIGTEKEPNNSKETASGPIVPGIPVSGTIENTSDQDYFYFDVITPGEVKIDINKLGYGGATWVVYDENNNAVSYATDDGQNLSGKFKADKPGRYYIHLYMFNGSYMPYRINIEGGGSGGGSLEVLFQGPGGGSLAEAKVLANRELDKYGVSDFYKRLINKAKTVEGVEALKLHILAALPHHHHHH
notes: The text says (G4S)3 linkers and a TEV site; also called 2Rs15d-ColH-ABD035
[4]
  Kd: 1.5 nM
